Results reported in publication PMC5701160.

Molecular target: PSI core complex (Haematococcus pluvialis (endogenous in strain K-0084))
Experiment: estimate from pigment ratios (HPLC) of the isolated B5 fraction; from Chl a/b and Chl/Car ratios, assuming 3.4 Cars per Lhca subunit and 100 Chl a per PSI core complex

stoichiometry N (Lhca proteins per P700): 5
Substance: LHCI antenna proteins
